Assay results published in patent publication US20260056186A1 (JIANGSU HENGRUI PHARMACEUTICALS, published 2026).

T1: APRIL (Acro Biosystems, Cat: APL-H52D1) (UniProt O75888 115-250, limits assumed)
T1 construct: also called ARPIL
T1 sequence (looked up): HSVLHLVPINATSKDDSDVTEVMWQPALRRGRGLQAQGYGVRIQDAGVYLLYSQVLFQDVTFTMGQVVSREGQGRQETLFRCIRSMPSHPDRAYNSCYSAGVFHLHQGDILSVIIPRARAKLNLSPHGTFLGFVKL


Experiments:
[1] = target: T2, BAFF (PeproTech, Cat: 310-13) (UniProt Q9Y275 134-285); assay: ELISA, BAFF coated; reference telitacicept
Description: (§1) The capabilities of TACI-BCMA fusion proteins (B575701, B575702, B575703, and B575704) to bind to BAFF and APRIL were assessed by ELISA as follows: BAFF (PeproTech, Cat: 310-13) or ARPIL (Acro Biosystems, Cat: APL-H52D1) was diluted to 1 μg/mL with PBS, and a 96-well plate (Costar, Cat: 3590) was coated with the dilution overnight at 4° C. The plate was washed with PBST and blocked with Blocking Buffer (PBST containing 1% BSA) at 37° C. for 1 h. The plate was tapped. The test antibodies were diluted with Blocking Buffer. Incubation was performed at 37° C. for 1.5 h. The plate was washed with PBST. An HRP-mouse anti-human Fc antibody (GenScript, Cat: A01854-200) was diluted with Blocking Buffer. Incubation was performed at 37° C. for 40 min. The plate was washed with PBST. 100 μL of TMB substrate solution (Biopanda, Cat: TMB-S-003) was added, and color development was performed at 37° C. for 3 min. 100 μL of ELISA stop solution (Solarbio, Cat: C1058) was added. OD450 was measured.
(§2) The capability of B575702 to bind to BAFF was consistent with that of B575704, and their EC₅₀ values decreased to ¼ of that of telitacicept. The capability of B575701 to bind to BAFF was consistent with that of B575703, and their EC₅₀ values decreased to ½ of that of telitacicept.

[2] = target: T2, BAFF (PeproTech, Cat: 310-13); assay: ELISA, BAFF coated at 1 ug/mL, anti-human Fc-HRP, OD450
Description: as §1, §2

[3] = target: T1, APRIL (Acro Biosystems, Cat: APL-H52D1); assay: ELISA, APRIL coated at 1 ug/mL, anti-human Fc-HRP, OD450
Description: as §1
(§3) The capabilities of the 4 fusion proteins to bind to APRIL were all stronger than that of telitacicept, and their EC₅₀ values decreased to ¼ to ⅓ of that of telitacicept.

[4] = target: T1, APRIL (Acro Biosystems, Cat: APL-H52D1); assay: ELISA, APRIL coated; reference telitacicept; range told of the 4 fusion proteins, lower end tied to B575702 by Table 5
Description: as §1, §3

[5] = target: T1, APRIL (Acro Biosystems, Cat: APL-H52D1); assay: ELISA, APRIL coated; reference telitacicept; range told of the 4 fusion proteins, upper end tied to B575703 by Table 5
Description: as §1, §3

EC50 relative to telitacicept [1] [fold] | EC50 [2] [nM] | Emax [2] | EC50 [3] [nM] | Emax [3] | EC50 relative to telitacicept [4] [fold] | EC50 relative to telitacicept [5] [fold] | Binder
0.25 | 0.166 | 2.24 nM (as printed) | 0.171 | 2.64 | 0.25 | – | B575702 (Fc fusion, TACI-BCMA fusion protein; also called BCMA-ECD-TACI-d2-Fc) MLQMAGQCSQNEYFDSLLHACIPCQLRCSSNTPPLTCQRYCNASVTNSVKGTNALSCRKEQGKFYDHLLRDCISCASICGQHPKQCAYFCENKLRSPGDKTHTCPPCPAPEAEGAPSVFLFPPKPKDTLMISRTPEVTCVVVDVSHEDPEVKFNWYVDGVEVHNAKTKPREEQYNSTYRVVSVLTVLHQDWLNGKEYKCKVSNKALPSSIEKTISKAKGQPREPQVYTLPPSRDELTKNQVSLTCLVKGFYPSDIAVEWESNGQPENNYKTTPPVLDSDGSFFLYSKLTVDKSRWQQGNVFSCSVMHEALHNHYTQKSLSLSPGK
0.5 | 0.352 | 2.43 nM (as printed) | 0.264 | 2.78 | – | 0.333 | B575703 (Fc fusion, TACI-BCMA fusion protein; also called TACI-T2-BCMA-ECD-Fc) SRVDQEERFPQGLWTGVAMRSCPEEQYWDPLLGTCMSCKTICNHQSQRTCAAFCRSLSCRKEQGKFYDHLLRDCISCASICGQHPKQCAYFCENKLRSPVNLPPELMLQMAGQCSQNEYFDSLLHACIPCQLRCSSNTPPLTCQRYCNASVTNSVKGTNADKTHTCPPCPAPEAEGAPSVFLFPPKPKDTLMISRTPEVTCVVVDVSHEDPEVKFNWYVDGVEVHNAKTKPREEQYNSTYRVVSVLTVLHQDWLNGKEYKCKVSNKALPSSIEKTISKAKGQPREPQVYTLPPSRDELTKNQVSLTCLVKGFYPSDIAVEWESNGQPENNYKTTPPVLDSDGSFFLYSKLTVDKSRWQQGNVFSCSVMHEALHNHYTQKSLSLSPGK
